Results from the MegaScale stability set (Tsuboyama et al. 2023).

B1: EEHEE_rd4_0763 (parent)
chain: LTVHVGNVTYHFDNPEQAEEWAKRMAKKYQGQIHVKDGQFRIE

Variants of: B1
Assay: folding stability dG (cDNA display proteolysis); higher = more stable
Conditions: PBS, room temperature

Variant | folding stability dG [kcal/mol]
LTVHVGNVTYHFDNPEQAEEWAKRMAKKFQGQIHVKDGQFRIE | 1.53
LTVHVGNVTYHFDNPEQAEEWAKRMLKKYQGQIHVKDGQFRIE | 1.25
LTVHVGNVTYHFDNPEKAEEWAKRMAKKYQGQIHVKDGQFRIE | 1.63
LTVHVGNVTYHFNNPEQAEEWAKRMAKKYQGQIHVKDGQFRIE | 1.72
LTVHVGNATYHFDNPEQAEEWAKRMAKKYQGQIHVKDGQFRIE | 1.58
LTVHVGNVTYHFDNPECAEEWAKRMAKKYQGQIHVKDGQFRIE | 2.6
LTVHVGNVTYHFDNPENAEEWAKRMAKKYQGQIHVKDGQFRIE | 1.38
LTVHVGNVTYHFDNPMQAEEWAKRMAKKYQGQIHVKDGQFRIE | 1.66
LTVHVGNVTYIFDNPEQAEEWAKRMAKKYQGQIHVKDGQFRIE | 1.56
LTVHVGNVTYHFDNPEQAEEWAKRMAKKYQGQIHYKDGQFRIE | 2.19
LTVHVGNVTYHFDNPEQAEEWAKRMAKVYQGQIHVKDGQFRIE | 1.43
LTVHVGNVTYHFDNPEQAEEWAKRMAKKYQGQMHVKDGQFRIE | 1.21
LTVHVGNVTYHFDNPEQAEENAKRMAKKYQGQIHVKDGQFRIE | 0.008
LTVHVGNVTYHFDHPEQAEEWAKRMAKKYQGQIHVKDGQFRIE | 1.57
LTVHVGNVTYHFDNPEQAEEWAKRMAKKYQGQIHVKDGKFRIE | 1.23
LTVHVGNVTYHFDNPEQAEEWAKRMAKKYQGQIHVKDGQFRIF | 1.69
LTVHVGNVTYHFDNPEQAEEWAKRMAKKYIGQIHVKDGQFRIE | 1.18
LTVHVGNVTYHFDNPEQAEEWAKRMAKKYTGQIHVKDGQFRIE | 1.2
LTVHVGNVTYHFDNTEQAEEWAKRMAKKYQGQIHVKDGQFRIE | 1.58
LTVHVGNVTYHFDNPEQAEEWAKRMAKKYQGQIHVKWGQFRIE | 0.774
KTVHVGNVTYHFDNPEQAEEWAKRMAKKYQGQIHVKDGQFRIE | 1.51
LTVHVGNVTYHFDNPEQAEEWAKRMAKKYQGQIHVKDGQFMIE | 1.94
LTVHVGNVTYDFDNPEQAEEWAKRMAKKYQGQIHVKDGQFRIE | 0.923
LSVHVGNVTYHFDNPEQAEEWAKRMAKKYQGQIHVKDGQFRIE | 1.55

Variant | folding stability dG [kcal/mol]
LTVHVGNVTYHFDNPEQAEEWAKRMAKKYQGQIHVTDGQFRIE | 1.73
LTVHVGNVTYHFDNPEQAEEWAKRMAKKTQGQIHVKDGQFRIE | 1.12
LQVHVGNVTYHFDNPEQAEEWAKRMAKKYQGQIHVKDGQFRIE | 1.53
LTVHVGNVTYHFDNPEQAEEWAKRMAKKYQGQQHVKDGQFRIE | 0.795
LTVHVGNVTYHFDNPFQAEEWAKRMAKKYQGQIHVKDGQFRIE | 1.63
LTVHVGNVTYHMDNPEQAEEWAKRMAKKYQGQIHVKDGQFRIE | 0.22
LTVHVGNVTYHFDNPEQAEEWAKRPAKKYQGQIHVKDGQFRIE | -0.51
LTWHVGNVTYHFDNPEQAEEWAKRMAKKYQGQIHVKDGQFRIE | 0.755
LTVHVGNVTYHFDNPEQAEEWAKRMAKKYQGQIHVKDGQTRIE | 1.2
LTVHVGNVTYHFDNPEQAEEWAKRMAKKYMGQIHVKDGQFRIE | 1.59
ATVHVGNVTYHFDNPEQAEEWAKRMAKKYQGQIHVKDGQFRIE | 2.1
LTVHVGNVTHHFDNPEQAEEWAKRMAKKYQGQIHVKDGQFRIE | 0.965
LTVHVGNVTYHFDSPEQAEEWAKRMAKKYQGQIHVKDGQFRIE | 1.67
LTVHVGNVTYHFDNPEQAEEWAKRMAKKYQGQIHVKDGQFRNE | 1.05
LTVHVGNVTYHFDNPEQAEEWAKRMTKKYQGQIHVKDGQFRIE | 0.749
LTVHVGNVTYHFDNPEQAEEWAKRMAKKYPGQIHVKDGQFRIE | 1.19
LTVHVGNVTYAFDNPEQAEEWAKRMAKKYQGQIHVKDGQFRIE | 1.31
LTVHVGNVTYHFDNPEQAEEWAKRMAKKYQGQIHVKCGQFRIE | 2.15
LTVHVGNVTYHFDNPEQAELWAKRMAKKYQGQIHVKDGQFRIE | 1.69
LTVHEGNVTYHFDNPEQAEEWAKRMAKKYQGQIHVKDGQFRIE | 0.355
LTVHVGNVTYHFDNPEQAEQWAKRMAKKYQGQIHVKDGQFRIE | 1.69
LTVHVGNVTYHFDNPEQAEEWAKRMAKKYQGQIHVKDGQFRIK | 1.23
LTVHVGNVTYHFDNPEQAEEWAKRMAKKYQGQIHVKDWQFRIE | 0.872
LTVHWGNVTYHFDNPEQAEEWAKRMAKKYQGQIHVKDGQFRIE | 1.82

Variant | folding stability dG [kcal/mol]
LWVHVGNVTYHFDNPEQAEEWAKRMAKKYQGQIHVKDGQFRIE | 1.5
LTVHVVNVTYHFDNPEQAEEWAKRMAKKYQGQIHVKDGQFRIE | 0.969
LTVHVGNVTYHFDNPPQAEEWAKRMAKKYQGQIHVKDGQFRIE | 0.809
LTVHVGNVTYHFDNPDQAEEWAKRMAKKYQGQIHVKDGQFRIE | 1.59
LTVHVGNVTYHFDNPEQAEEWANRMAKKYQGQIHVKDGQFRIE | 1.38
LTVHVGNVTYHFDNPEQAEEWADRMAKKYQGQIHVKDGQFRIE | 0.88
LTVHVGNVTYHFDNPEQAEEWAKRMAKKYQGQIHVKDGQFFIE | 3.1
LTVHVGNVTYHFDNPEQAEEWAKRMAKKYQGQIHAKDGQFRIE | 0.96
LTVHVGNVTYHFDGPEQAEEWAKRMAKKYQGQIHVKDGQFRIE | 1.03
NTVHVGNVTYHFDNPEQAEEWAKRMAKKYQGQIHVKDGQFRIE | 2.06
LTVHVGNVTYHFLNPEQAEEWAKRMAKKYQGQIHVKDGQFRIE | 1.51
LTVHVGNVTYHFDNPEQAEEWAKRMAKKYQGQIHVKDGQFRTE | 1.08
LTVHVGNVTYHFDNPEQAEEWAKRMAKKYQGQIHWKDGQFRIE | 1.81
FTVHVGNVTYHFDNPEQAEEWAKRMAKKYQGQIHVKDGQFRIE | 2.66
LTVHVGNVTYHFWNPEQAEEWAKRMAKKYQGQIHVKDGQFRIE | 1.4
LTVHVGNVTYHFDNPEQAEEWAKRMAKKYQGQIHVKDGNFRIE | 1.66
LTVHVGVVTYHFDNPEQAEEWAKRMAKKYQGQIHVKDGQFRIE | 1.4
LTTHVGNVTYHFDNPEQAEEWAKRMAKKYQGQIHVKDGQFRIE | 0.36
LTVHVGQVTYHFDNPEQAEEWAKRMAKKYQGQIHVKDGQFRIE | 1.56
LTVHVGNTTYHFDNPEQAEEWAKRMAKKYQGQIHVKDGQFRIE | 1.53
LTVHVGNVTYHFDNPEQAEEWAKRMASKYQGQIHVKDGQFRIE | 1.55
LTVHVGNVTYHFDNPEQAEEWAKRMAKKYQGQPHVKDGQFRIE | 0.833
LTVHVGNVTYHFDNPEQAEEWAKRMAKKKQGQIHVKDGQFRIE | 0.706
LTVHVGNVTYHFDNPEQAEEWAKRMAKKYQGDIHVKDGQFRIE | 1.27

Variant | folding stability dG [kcal/mol]
LTVHVPNVTYHFDNPEQAEEWAKRMAKKYQGQIHVKDGQFRIE | 0.447
LTVHVGNVTYHFDNPEQAEEWAKRMAKKYQGQIHVKDGQFRIC | 3.04
LTVHVGNVTYHFDNPEQAEEWAKRMAKRYQGQIHVKDGQFRIE | 1.78
LTVHVGNVTYHFDNPEQAEEWAKRMAKKYQTQIHVKDGQFRIE | 1.52
LTVHVGYVTYHFDNPEQAEEWAKRMAKKYQGQIHVKDGQFRIE | 1.62
LTVHVGNVTYHFDNPEVAEEWAKRMAKKYQGQIHVKDGQFRIE | 1.57
LTVHVGNVYYHFDNPEQAEEWAKRMAKKYQGQIHVKDGQFRIE | 1.45
LTVHVGNVTYHFDNPEQAEEWAKRMAKKYQGQIHVKDAQFRIE | 0.755
LTVHVGNVTYHFDNPEQAEEWAKRMAKKYQSQIHVKDGQFRIE | 1.47
LTVHVGTVTYHFDNPEQAEEWAKRMAKKYQGQIHVKDGQFRIE | 1.67
LTVHVGNVTYHFDNPEQAERWAKRMAKKYQGQIHVKDGQFRIE | 1.81
LTVHVGNVTYHSDNPEQAEEWAKRMAKKYQGQIHVKDGQFRIE | 0.081
LTVHVGNVTMHFDNPEQAEEWAKRMAKKYQGQIHVKDGQFRIE | 0.903
LTVHVGNVTYHFDNPEQAEEWAKRDAKKYQGQIHVKDGQFRIE | -0.162
LTVHVGNVTYHFDFPEQAEEWAKRMAKKYQGQIHVKDGQFRIE | 1.47
LTVHVGNETYHFDNPEQAEEWAKRMAKKYQGQIHVKDGQFRIE | 1.36
LTVHVGNVTYHFDNPEQKEEWAKRMAKKYQGQIHVKDGQFRIE | 0.701
LTVHVGNVTYHFDNPEQAEEWAKRMAKKYQGQIHVKDGQFRLE | 0.845
LTVHVGNVTYHFDNPEQAEKWAKRMAKKYQGQIHVKDGQFRIE | 1.8
LTVHVGNVTYHFDNPEQAEEWAGRMAKKYQGQIHVKDGQFRIE | 1.02
LTVHVGNVTYHFDNPEQAHEWAKRMAKKYQGQIHVKDGQFRIE | 1.72
LTVHVGNVTYHFDNPEQAEEWAKRMKKKYQGQIHVKDGQFRIE | 0.73
LTVHVGNVTYHFDNPEQAEEWAKRMAKKYQGQIHVKDIQFRIE | 0.869
LTVHVGNVTYHFDNPEQAEEWAKRMACKYQGQIHVKDGQFRIE | 2.38

Variant | folding stability dG [kcal/mol]
LTVHVGNVTYHFDNPEQAEEWAKRMAKKYQGCIHVKDGQFRIE | 1.93
LTVHVGNVTYHFDNPEQAEEWAKRMAKNYQGQIHVKDGQFRIE | 0.823
LIVHVGNVTYHFDNPEQAEEWAKRMAKKYQGQIHVKDGQFRIE | 1.59
LTVHVGEVTYHFDNPEQAEEWAKRMAKKYQGQIHVKDGQFRIE | 1.37
LTVHVGNVTYHFDNPTQAEEWAKRMAKKYQGQIHVKDGQFRIE | 1.68
LTVHVGNVTYHFDNPEQAEEWAKRMEKKYQGQIHVKDGQFRIE | 0.642
LTVHVGNVTYHFDNPEQAEEWDKRMAKKYQGQIHVKDGQFRIE | -0.159
LTVHVGNVTYHFDNPEQAEEWAKRMAKKYQGQIHVKDGQFRIM | 1.5
LTVHVGNVTYHFDNPEQAEEWAKRMAKKYQGQILVKDGQFRIE | 1.75
LTVHVGNVTYHFDNPEQAEEWAKRMAKKYQGQIHVVDGQFRIE | 2.24
LTVHVGNVTYHFDNPEQAEEWAKRMADKYQGQIHVKDGQFRIE | 1.44
LTVHVFNVTYHFDNPEQAEEWAKRMAKKYQGQIHVKDGQFRIE | 1.84
LTVHVGNVTYHFDNPEQAEEWAKRMAKKYQGQIHVKDGFFRIE | 1.17
LTVHVGNVTYHFDNPEQAEEWAKRMAKKYLGQIHVKDGQFRIE | 1.39
LTVHVGNVTYHFDNPEQAEEWAKRMAKKYQGQIQVKDGQFRIE | 1.61
LTVHVGNVTYHFDNPETAEEWAKRMAKKYQGQIHVKDGQFRIE | 1.57
LTVHVGNVTYYFDNPEQAEEWAKRMAKKYQGQIHVKDGQFRIE | 1.85
LTVHPGNVTYHFDNPEQAEEWAKRMAKKYQGQIHVKDGQFRIE | 0.391
LTVHVGNVTYHFDNPEQAEEWEKRMAKKYQGQIHVKDGQFRIE | 0.234
LTVHVGNCTYHFDNPEQAEEWAKRMAKKYQGQIHVKDGQFRIE | 3.03
LTVHVGNVCYHFDNPEQAEEWAKRMAKKYQGQIHVKDGQFRIE | 2.01
LTVHVGNVTYHFDNPEQAEEWAKRMAKKYQGQIHDKDGQFRIE | 0.963
